Data: article doi:10.1101/2023.08.15.553389

Biological target: IgG1 Fc L234C/E382A ("less-crystallisable" Fc with L234C exchange)
Experiment: crystal structure

B1: EndoS2 (38-843) D184A/E186L, inactive exchange variant (enzyme)
chain: EKTVQTGKTDQQVGAKLVQEIREGKRGPLYAGYFRTWHDRASTGIDGKQQHPENTMAEVPKEVDILFVFHDHTASDSPFWSELKDSYVHKLHQQGTALVQTIGVNELNGRTGLSKDYPDTPEGNKALAAAIVKAFVTDRGVDGLDIAILHEFTNKRTPEEDARALNVFKEIAQLIGKNGSDKSKLLIMDTTLSVENNPIFKGIAEDLDYLLRQYYGSQGGEAEVDTINSDWNQYQNYIDASQFMIGFSFFEESASKGNLWFDVNEYDPNNPEKGKDIEGTRAKKYAEWQPSTGGLKAGIFSYAIDRDGVAHVPSTYKNRTSTNLQRHEVDNISHTDYTVSRKLKTLMTEDKRYDVIDQKDIPDPALREQIIQQVGQYKGDLERYNKTLVLTGDKIQNLKGLEKLSKLQKLELRQLSNVKEITPELLPESMKKDAELVMVGMTGLEKLNLSGLNRQTLDGIDVNSITHLTSFDISHNSLDLSEKSEDRKLLMTLMEQVSNHQKITVKNTAFENQKPKGYYPQTYDTKEGHYDVDNAEHDILTDFVFGTVTKRNTFIGDEEAFAIYKEGAVDGRQYVSKDYTYEAFRKDYKGYKVHLTASNLGETVTSKVTATTDETYLVDVSDGEKVVHHMKLNIGSGAIMMENLAKGAKVIGTSGDFEQAKKIFDGEKSDRFFTWGQTNWIAFDLGEINLAKEWRLFNAETNTEIKTDSSLNVAKGRLQILKDTTIDLEKMDIKNRKEYLSNDENWTDVAQMDDAKAIFNSKLSNVLSRYWRFCVDGGASSYYPQYTELQILGQRLSNDVANTLKD
stoichiometry N (EndoS2 molecules per Fc homodimer): 2
